Data set [1] deals with T1, LASV L protein (WT) (Lassa virus Bantou 289, UniProt A0A3S8NV63 1-2217). Kind of data set: cryo-EM; PRE-[…]ON, 3.34 A. Particulars: protein: recombinant; tags: internal StrepII after residue 407, or C-terminal StrepII-His.
Data set [2] has as its target T1, LASV L protein (WT). Kind of data set: EMSA. Particulars: protein: recombinant; tags: internal StrepII after residue 407, or C-terminal StrepII-His; label: 5' Cyanine3; single strand.

B1: full promoter: 5' vRNA 0-19 / 3' vRNA 1-19 (structured_RNA)
RNA 1: GCGCACCGGGGAUCCUAGGC
RNA 2: GCCUAGGAUCCACUGUGCG
Regarding B1, the binding result in data set [1] was “binds”.
In the case of CCACUGUGCG (ssRNA) [3' vRNA 1-10 nt], the binding result in data set [2] is recorded as “binds”.

For the origin of these results see PMC8639829.
